In publication PMC8805299, “Determining the oxidation state of elements by X-ray crystallography” (Acta Crystallographica. Section D, Structural Biology, 2022):

Molecular target: the molecule itself
Experiment: crystal structure; diFe-SulE crystals grown anoxically in 0.1 M bis-Tris pH 5.5, 24% (w/v) PEG 3350 at 293 K, treated with 100 mM H2O2; data at 100 K; space group P63; three data sets at 5%, 10% and 100% beamline flux

B1: Sulfolobus tokodaii sulerythrin reconstituted with ferrous iron (diFe-SulE) (natural protein, UniProt F9VPE5 1-144, looked up)
chain: MKDLKGTKTAENLKQGFIGESMANRRYLYFAKRADEEGYPEIAGLLRSIAEGETAHAFGHLDFIRQGGLTDPATDKPIGTLEQMIESAIAGETYEWTQMYPGFAKVAREEGFPEVAEWFETLARAEKSHAEKFQNVLKQLKGGT
notes: Sulerythrin (SulE), Sulfolobus tokodaii, UniProt F9VPE5, residues 1-145; synthetic gene in pET-28a with an N-terminal Strep-tag and a TEV protease site; Domain-swapped homodimer; each of its two binuclear metal sites holds two iron ions (four in all); Crystals were treated with 100 mM H2O2; not shown: Strep-tag, N-terminal, cleaved
  stoichiometry N: 2
